In article doi:10.1101/2021.05.05.442785 (bioRxiv, 2021):

B1: E. coli methionine S-adenosyltransferase (MAT), recombinant (enzyme)
chain: AKHLFTSESVSEGHPDKIADQISDAVLDAILEQDPKARVACETYVKTGMVLVGGEITTSAWVDIEEITRNTVREIGYVHSDMGFDANSCAVLSAIGKQSPDINQGVDRADPLEQGAGDQGLMFGYATNETDVLMPAPITYAHRLVQRQAEVRKNGTLPWLRPDAKSQVTFQYDDGKIVGIDAVVLSTQHSEEIDQKSLQEAVMEEIIKPILPAEWLTSATKFFINPTGRFVIGGPMGDCGLTGRKIIVDTYGGMARHGGGAFSGKDPSKVDRSAAYAARYVAKNIVAAGLADRCEIQVSYAIGVAEPTSIMVETFGTEKVPSEQLTLLVREFFDLRPYGLIQMLDLLHPIYKETAAYGHFGREHFPWEKTDKAQLLRDAAGLK
B2: S-adenosylmethionine lyase (SAMase) of bacteriophage T3, C-terminal His-tagged (enzyme, UniProt P07693 1-152, looked up)
chain: MIFTKEPAHVFYVLVSAFRSNLCDEVNMSRHRHMVSTLRAAPGLYGSVESTDLTGCYREAISSAPTEEKTVRVRCKDKAQALNVARLACNEWEQDCVLVYKSQTHTAGLVYAKGIDGYKAERLPGSFQEVPKGAPLQGCFTIDEFGRRWQVQ

How the values were obtained:
[1] = biological target: the molecule itself; assay: cryo-EM structure
[2] = biological target: B1; assay: cryo-EM structure

Binder	stoichiometry N [1]	binding result [2]
B1	4	
B2	2	binds
